Data: US20230272028

ALU30-10, sequence (chain, as listed by the source): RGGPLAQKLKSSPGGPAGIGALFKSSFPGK
ALU30-15, sequence (chain, as listed by the source): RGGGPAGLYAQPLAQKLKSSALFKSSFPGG
ALU30-12, sequence (chain, as listed by the source): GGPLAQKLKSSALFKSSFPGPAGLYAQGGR
ALU30-16, sequence (chain, as listed by the source): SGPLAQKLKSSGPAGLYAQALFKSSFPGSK
ALU30-19, sequence (chain, as listed by the source): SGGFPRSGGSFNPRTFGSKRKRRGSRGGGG
ALU30-5, sequence (chain, as listed by the source): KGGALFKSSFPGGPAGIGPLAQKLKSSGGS
Factor Xa, recombinant human, sequence (chain): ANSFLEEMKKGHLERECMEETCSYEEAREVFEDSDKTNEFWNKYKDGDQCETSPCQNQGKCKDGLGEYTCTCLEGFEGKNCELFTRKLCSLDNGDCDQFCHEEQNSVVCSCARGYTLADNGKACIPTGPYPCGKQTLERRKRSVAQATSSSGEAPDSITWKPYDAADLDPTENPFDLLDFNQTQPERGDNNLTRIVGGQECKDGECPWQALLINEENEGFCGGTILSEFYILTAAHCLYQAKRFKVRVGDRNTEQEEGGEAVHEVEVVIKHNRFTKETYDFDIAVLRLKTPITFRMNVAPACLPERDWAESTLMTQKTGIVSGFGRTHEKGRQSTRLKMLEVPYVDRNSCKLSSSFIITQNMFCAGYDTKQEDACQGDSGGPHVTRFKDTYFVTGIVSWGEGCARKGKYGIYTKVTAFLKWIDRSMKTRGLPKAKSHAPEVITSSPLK
ALU30-13, sequence (chain, as listed by the source): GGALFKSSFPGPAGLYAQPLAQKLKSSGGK
ALU30-7, sequence (chain, as listed by the source): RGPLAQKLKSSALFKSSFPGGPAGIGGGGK
ALU30-1, sequence (chain, as listed by the source): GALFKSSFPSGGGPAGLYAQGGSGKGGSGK
ALU30-14, sequence (chain, as listed by the source): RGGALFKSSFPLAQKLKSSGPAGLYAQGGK
ALU30-8, sequence (chain, as listed by the source): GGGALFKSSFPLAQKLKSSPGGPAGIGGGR
ALU30-9, sequence (chain, as listed by the source): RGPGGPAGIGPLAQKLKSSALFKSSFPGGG
ALU30-2, sequence (chain, as listed by the source): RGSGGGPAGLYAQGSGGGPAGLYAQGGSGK
MMP-9, recombinant human, sequence (chain, as listed by the source): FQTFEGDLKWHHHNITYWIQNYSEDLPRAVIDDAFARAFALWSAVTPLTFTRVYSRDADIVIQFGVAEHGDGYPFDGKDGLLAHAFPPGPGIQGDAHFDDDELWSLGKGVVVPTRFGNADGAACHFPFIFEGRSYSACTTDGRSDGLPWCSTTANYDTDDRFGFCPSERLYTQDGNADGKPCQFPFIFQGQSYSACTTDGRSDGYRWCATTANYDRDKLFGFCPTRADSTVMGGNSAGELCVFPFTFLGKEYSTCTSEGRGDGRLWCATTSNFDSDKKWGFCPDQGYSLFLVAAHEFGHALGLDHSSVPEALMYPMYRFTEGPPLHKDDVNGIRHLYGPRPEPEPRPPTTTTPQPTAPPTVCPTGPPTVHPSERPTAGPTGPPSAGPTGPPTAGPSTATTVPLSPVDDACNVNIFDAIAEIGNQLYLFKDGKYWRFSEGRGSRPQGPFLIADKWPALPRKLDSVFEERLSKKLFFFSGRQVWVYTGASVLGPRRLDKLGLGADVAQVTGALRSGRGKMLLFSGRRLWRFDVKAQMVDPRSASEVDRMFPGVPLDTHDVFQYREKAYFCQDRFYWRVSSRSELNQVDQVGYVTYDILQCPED
hepsin, recombinant human, sequence (chain, as listed by the source): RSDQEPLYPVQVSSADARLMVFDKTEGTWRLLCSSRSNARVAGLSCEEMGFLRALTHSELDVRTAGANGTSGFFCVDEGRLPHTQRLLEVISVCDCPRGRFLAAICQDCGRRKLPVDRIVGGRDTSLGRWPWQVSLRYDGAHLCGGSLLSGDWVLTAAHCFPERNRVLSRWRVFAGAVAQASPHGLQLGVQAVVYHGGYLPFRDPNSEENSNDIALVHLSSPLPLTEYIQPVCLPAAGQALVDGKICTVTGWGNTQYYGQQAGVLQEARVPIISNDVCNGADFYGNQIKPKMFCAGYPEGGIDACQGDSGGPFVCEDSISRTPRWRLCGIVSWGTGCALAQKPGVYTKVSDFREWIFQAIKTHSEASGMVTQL
ALU30-6, sequence (chain, as listed by the source): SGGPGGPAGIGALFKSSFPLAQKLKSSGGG
ALU30-4, sequence (chain, as listed by the source): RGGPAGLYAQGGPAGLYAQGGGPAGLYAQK
ALU30-17, sequence (chain, as listed by the source): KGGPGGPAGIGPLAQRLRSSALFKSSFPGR
ALU30-3, sequence (chain, as listed by the source): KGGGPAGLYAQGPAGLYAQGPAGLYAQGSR
ALU30-18, sequence (chain, as listed by the source): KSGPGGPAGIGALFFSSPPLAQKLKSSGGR
ALU30-11, sequence (chain, as listed by the source): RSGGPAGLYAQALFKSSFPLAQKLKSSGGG

Substance	30-mer peptide degradation by recombinant enzyme (MSP-MS) (ALU30-10)	30-mer peptide degradation by recombinant enzyme (MSP-MS) (ALU30-11)	30-mer peptide degradation by recombinant enzyme (MSP-MS) (ALU30-12)	30-mer peptide degradation by recombinant enzyme (MSP-MS) (ALU30-13)	30-mer peptide degradation by recombinant enzyme (MSP-MS) (ALU30-14)	30-mer peptide degradation by recombinant enzyme (MSP-MS) (ALU30-15)	30-mer peptide degradation by recombinant enzyme (MSP-MS) (ALU30-16)	comparison of cleavage efficiencies across the 30-mer library (ALU30-16)	30-mer peptide degradation by recombinant enzyme (MSP-MS) (ALU30-17)	30-mer peptide degradation by recombinant enzyme (MSP-MS) (ALU30-18)	30-mer peptide degradation by recombinant enzyme (MSP-MS) (ALU30-19)	30-mer peptide degradation by recombinant enzyme (MSP-MS) (ALU30-1)	30-mer peptide degradation by recombinant enzyme (MSP-MS) (ALU30-5)	30-mer peptide degradation by recombinant enzyme (MSP-MS) (ALU30-6)	30-mer peptide degradation by recombinant enzyme (MSP-MS) (ALU30-7)	30-mer peptide degradation by recombinant enzyme (MSP-MS) (ALU30-8)	30-mer peptide degradation by recombinant enzyme (MSP-MS) (ALU30-9)	30-mer peptide degradation by recombinant enzyme (MSP-MS) (ALU30-2)	30-mer peptide degradation by recombinant enzyme (MSP-MS) (ALU30-3)	30-mer peptide degradation by recombinant enzyme (MSP-MS) (ALU30-4)	other results
Factor Xa, recombinant human	all other peptides bearing a CTSL1_1 motif were cleaved by Factor Xa at either ALF|KSSFP (SEQ ID NO: 198) or ALFKS|SFP (SEQ ID NO: 198)	all other peptides bearing a CTSL1_1 motif were cleaved by Factor Xa at either ALF|KSSFP (SEQ ID NO: 198) or ALFKS|SFP (SEQ ID NO: 198)	all other peptides bearing a CTSL1_1 motif were cleaved by Factor Xa at either ALF|KSSFP (SEQ ID NO: 198) or ALFKS|SFP (SEQ ID NO: 198)	all other peptides bearing a CTSL1_1 motif were cleaved by Factor Xa at either ALF|KSSFP (SEQ ID NO: 198) or ALFKS|SFP (SEQ ID NO: 198)	all other peptides bearing a CTSL1_1 motif were cleaved by Factor Xa at either ALF|KSSFP (SEQ ID NO: 198) or ALFKS|SFP (SEQ ID NO: 198)	all other peptides bearing a CTSL1_1 motif were cleaved by Factor Xa at either ALF|KSSFP (SEQ ID NO: 198) or ALFKS|SFP (SEQ ID NO: 198)	all other peptides bearing a CTSL1_1 motif were cleaved by Factor Xa at either ALF|KSSFP (SEQ ID NO: 198) or ALFKS|SFP (SEQ ID NO: 198)	the lowest susceptibility to thrombin, Factor Xa, and hepsin	all other peptides bearing a CTSL1_1 motif were cleaved by Factor Xa at either ALF|KSSFP (SEQ ID NO: 198) or ALFKS|SFP (SEQ ID NO: 198)	The peptide with the motif CTSL1_2 was cleaved at the lowest efficiency	Peptide Alu30-19 with this motif was completely degraded before the 5 min time point	all other peptides bearing a CTSL1_1 motif were cleaved by Factor Xa at either ALF|KSSFP (SEQ ID NO: 198) or ALFKS|SFP (SEQ ID NO: 198)	the only library peptide with significant cleavage was Alu30-5, cleaved at the CTSL1_1 motif ALFKS|SFP (SEQ ID NO: 198), upstream of a FAPa_1 motif	all other peptides bearing a CTSL1_1 motif were cleaved by Factor Xa at either ALF|KSSFP (SEQ ID NO: 198) or ALFKS|SFP (SEQ ID NO: 198)	all other peptides bearing a CTSL1_1 motif were cleaved by Factor Xa at either ALF|KSSFP (SEQ ID NO: 198) or ALFKS|SFP (SEQ ID NO: 198)	all other peptides bearing a CTSL1_1 motif were cleaved by Factor Xa at either ALF|KSSFP (SEQ ID NO: 198) or ALFKS|SFP (SEQ ID NO: 198)	all other peptides bearing a CTSL1_1 motif were cleaved by Factor Xa at either ALF|KSSFP (SEQ ID NO: 198) or ALFKS|SFP (SEQ ID NO: 198)				
MMP-9, recombinant human	the FAPa_1 motif was also cleaved within the peptides bearing FAPa_1 directly followed by the CTSL1_1 motif at PGGPAG|IGALF (SEQ ID NO: 247); these were lower efficiency cleavages		The slowest peptides bear the MMP14_1 motif near the C-terminus of the 30-mer peptide	The next most efficient substrates contained the pair of motifs where MMP14_1 was followed directly by ADAM17_2	The slowest peptides bear the MMP14_1 motif near the C-terminus of the 30-mer peptide	The next most efficient substrates contained the pair of motifs where MMP14_1 was followed directly by ADAM17_2						The single or double MMP14_1 motif-bearing peptides were next in the order	The FAPa_1 motif was not cleaved by MMP9, however, when followed either by the ADAM17_2 motif or the spacing residues GG	the FAPa_1 motif was also cleaved within the peptides bearing FAPa_1 directly followed by the CTSL1_1 motif at PGGPAG|IGALF (SEQ ID NO: 247); these were lower efficiency cleavages	The FAPa_1 motif was not cleaved by MMP9, however, when followed either by the ADAM17_2 motif or the spacing residues GG	The FAPa_1 motif was not cleaved by MMP9, however, when followed either by the ADAM17_2 motif or the spacing residues GG	The FAPa_1 motif was not cleaved by MMP9, however, when followed either by the ADAM17_2 motif or the spacing residues GG	The single or double MMP14_1 motif-bearing peptides were next in the order	The most efficient MMP9 substrates were those that bore three-repeats of the MMP14_1 motif	The most efficient MMP9 substrates were those that bore three-repeats of the MMP14_1 motif	product formation at single bonds (MSP-MS) (ALU30-1): the specific cleavage of the Alu30-2 peptide was more efficient than the Alu30-1 peptide; product formation at single bonds (MSP-MS) (ALU30-2): the specific cleavage of the Alu30-2 peptide was more efficient than the Alu30-1 peptide
hepsin, recombinant human								the lowest susceptibility to thrombin, Factor Xa, and hepsin			Alu30-19 was cleaved at all three motifs within the first 15 min of the reaction										apparent catalytic efficiency (kcat/KM) (ALU30-12): The authentic peptide Alu30-19, as well as the top cleaved peptides Alu30-8,-9, -12, and -14 all had apparent catalytic efficiencies on the same order of 105; apparent catalytic efficiency (kcat/KM) (ALU30-14): The authentic peptide Alu30-19, as well as the top cleaved peptides Alu30-8,-9, -12, and -14 all had apparent catalytic efficiencies on the same order of 105; comparison of cleavage efficiencies across the 30-mer library (ALU30-15): it had slightly higher hepsin susceptibility and lower CTSL1 activity; apparent catalytic efficiency (kcat/KM) (ALU30-19): The authentic peptide Alu30-19, as well as the top cleaved peptides Alu30-8,-9, -12, and -14 all had apparent catalytic efficiencies on the same order of 105; apparent catalytic efficiency (kcat/KM) (ALU30-8): The authentic peptide Alu30-19, as well as the top cleaved peptides Alu30-8,-9, -12, and -14 all had apparent catalytic efficiencies on the same order of 105; apparent catalytic efficiency (kcat/KM) (ALU30-9): The authentic peptide Alu30-19, as well as the top cleaved peptides Alu30-8,-9, -12, and -14 all had apparent catalytic efficiencies on the same order of 105
thrombin, recombinant human	Thrombin showed higher activity than Factor Xa, and it cleaved each of the 30-mer peptides	Thrombin showed higher activity than Factor Xa, and it cleaved each of the 30-mer peptides	the peptides Alu30-12, Alu30-13 and Alu30-15, with MMP141 motifs in combination with ADAM17_2 and CTSL1_1, were cleaved at lower efficiency by thrombin	the peptides Alu30-12, Alu30-13 and Alu30-15, with MMP141 motifs in combination with ADAM17_2 and CTSL1_1, were cleaved at lower efficiency by thrombin	Thrombin showed higher activity than Factor Xa, and it cleaved each of the 30-mer peptides	the peptides Alu30-12, Alu30-13 and Alu30-15, with MMP141 motifs in combination with ADAM17_2 and CTSL1_1, were cleaved at lower efficiency by thrombin	Thrombin showed higher activity than Factor Xa, and it cleaved each of the 30-mer peptides	the lowest susceptibility to thrombin, Factor Xa, and hepsin	The two alternate ADAM17 motifs were cleaved with similar efficiency (peptides Alu30-17 vs Alu30-9)	the CTSL1_2 motif had lower cleavage activity than did the CTSL1_1 motif (peptides Alu30-18 vs Alu30-6)	Thrombin showed higher activity than Factor Xa, and it cleaved each of the 30-mer peptides	The peptides Alu30-1 and Alu30-3 were the most rapidly cleaved in the library	Thrombin showed higher activity than Factor Xa, and it cleaved each of the 30-mer peptides	the CTSL1_2 motif had lower cleavage activity than did the CTSL1_1 motif (peptides Alu30-18 vs Alu30-6)	Thrombin showed higher activity than Factor Xa, and it cleaved each of the 30-mer peptides	Thrombin showed higher activity than Factor Xa, and it cleaved each of the 30-mer peptides	The two alternate ADAM17 motifs were cleaved with similar efficiency (peptides Alu30-17 vs Alu30-9)	The peptide Alu30-2, bearing two MMP14_1 motifs, was less susceptible to thrombin	The peptides Alu30-1 and Alu30-3 were the most rapidly cleaved in the library	Alu30-4 was also an efficient substrate	
